Results reported in patent publication US20240409599A1 (Genentech, published 2024).

Columns and labels:
[1] = target: T1, Human IL-18Rα extracellular domain (human, UniProt Q13478 22-329, biotinylated (site not stated)); assay: SPR, Biacore 8K, 37 C, biotinylated target on SA chip
T1 construct: also called IL-18 receptor
T1 sequence: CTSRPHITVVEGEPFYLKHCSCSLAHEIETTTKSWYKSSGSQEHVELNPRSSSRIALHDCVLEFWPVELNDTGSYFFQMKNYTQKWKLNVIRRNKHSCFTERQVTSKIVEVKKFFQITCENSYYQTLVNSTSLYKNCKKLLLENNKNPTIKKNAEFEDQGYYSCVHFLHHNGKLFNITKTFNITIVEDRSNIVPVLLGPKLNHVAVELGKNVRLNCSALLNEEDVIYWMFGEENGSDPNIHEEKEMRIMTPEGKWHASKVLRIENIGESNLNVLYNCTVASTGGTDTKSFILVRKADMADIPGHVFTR
Method: (§1) SPR experiments were performed using a Biacore 8K (Cytiva) at a temperature of 37° C. Biotinylated human or mouse IL-18Rα and IL-18BP were immobilized onto Biacore streptavidin sensor chip (Series S Sensor Chip SA, Cytiva) to yield an Rmax ≤50 RU. Measurements were made with five, three-fold dilutions into HBS-P+ buffer (10 mM HEPES pH 7.4, 150 mM NaCl, 0.005% surfactant P20). Interactions were evaluated using the single-cycle kinetics method and analyzed with the Biacore 8K evaluation software and fit to a 1:1 binding model.
(§2) A subset of variants were selected for analyses of binding kinetics to the L-18 receptor, IL-IM, and the decoy receptor, L-18BP, by surface plasmon resonance (SPR) (Table 8). With two exceptions, all kinetics constants are within an order of magnitude of wild-type IL-18.

[2] = target: T2, Human IL-18BP (isoform A) (human, UniProt O95998 31-194, biotinylated (site not stated)); assay: SPR, Biacore 8K, 37 C, biotinylated target on SA chip, single-cycle kinetics
T2 construct: also called decoy receptor
T2 sequence: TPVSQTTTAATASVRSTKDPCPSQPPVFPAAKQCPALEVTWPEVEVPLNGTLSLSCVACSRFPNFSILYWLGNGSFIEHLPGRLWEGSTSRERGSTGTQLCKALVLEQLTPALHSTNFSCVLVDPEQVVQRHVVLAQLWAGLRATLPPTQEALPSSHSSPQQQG
Method: as §1, §2

B1: Human IL-18 N50C/L174C (ligand)
chain: YFGKLESKLSVIRCLNDQVLFIDQGNRPLFEDMTDSDSRDNAPRTIFIISMYKDSQPRGMAVTISVKSEKISTLSCENKIISFKEMNPPDNIKDTKSDIIFFQRSVPGHDNKMQFESSSYEGYFLACEKERDLFKLICKKEDELGDRSIMFTVQNED
notes: Made in mammalian cells
Question: Does B1 bind [1]?
Answer: Result: no binding (tested: up to 81 nM)

Question: And the Kd [2]?
Answer: The Kd was 0.014 nM.

Question: And the koff [2]?
Answer: The koff was 4.8e-05 s⁻¹.

Question: And the kon [2]?
Answer: The kon was 3.6e+06 M⁻¹ s⁻¹.
